Assay: yeast display, Sf9 membrane polyspecificity reagent, FACS + sequencing; frameworks hold sequencing errors
Method in brief: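 Galactose induction of a Saccharomyces cerevisiae BJ5465 synthetic nanobody display library ran 36–48 hours. The cells were then stained for 1 hour at 4 °C with 10% biotinylated, detergent-solubilized Sf9 membrane reagent, pulled down on streptavidin microbeads and FACS-sorted into low and high (top ~1%) gates on expression and reagent-binding fluorescence. Labels for polyreactivity follow the gate of origin.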

Sequence	polyreactivity (PSR sort gate)
QVQLVESGGGLVQEGGSLRLSCAASGIIFQRNDMGWYRQAPGKERELVANIRDGGITYADSVKGRFTISRDNAKNTVYLQMNSLKPEDTAVYYCARDDTSPGYGDQSSNAAYYYWGQGTQVTVSS	low polyreactivity
QVQLVESGGGLVQEGGSLRLSCAASGIIFSRYAMGWYRPAPGKERELVAAITRSGGDTYYADSVKGRFTISRDNAKNTVYLQMNSLNPEDTAVYYCAAERTWYPWVATGYYWGQGTQVTVSS	low polyreactivity
QVQLVESGGGLVQEGGSLRLSCAASGINFNVNALGWYKQAPGKERELVARITTSGGSTSYADSVKGRFTISRDNAKNTVYLQMNSLKPDDTAVYYCAADRARYYSEYDYWGQGTQVNVSS	low polyreactivity
QVQLVESGGGLVQEGGSLRLSCAASGLISQRNVMGWYRQAPGKERELVARISTSSSGTYYADSVKGRFTISRDNAKNTFYLHMYSLKPEYTAVYYCAVRYRGGAARQIYDYWGQGTQVTVSS	high polyreactivity
QVQLVESGGGLVQEGGSLRLSCAASGRIFSRYVMGWYRQAPGKERELVAAITGSGGSTYYADSVKGRFTISRDNAKNTVYLQMNSLKPEDTADYYCAVVSRANSYRYNYWGQGTQVTVSS	high polyreactivity
QVQLVESGGGLVQEGGSLRLSCAASGRIYARNAMGWYRQAPGKERDLVAAIRNSDGSTYYADSVNGRFTISRDNAKNSVYLQMNSLKPEDTAVYYCNTVPYPAYLARMDYWGQGTQVTVSS	high polyreactivity
QVQLVESGGGLVQEGGSLRLSCAASGRTFAIYTMGCYRQAPGKERELVATNSGSAGNTYYADSVKGRYTISRDNAKNTVYLQMNSLIPEDTAVYYCAARQRKSRQIVLLDYWGQGTQVTVSS	high polyreactivity
QVQLVESGGGLVQEGGSLRLSCAASGRTFWAYAMGWYRQAPGKERELVAAITTSGGSTNYADSVKGRFTISRDNAKNTVYLQMNSLKPEDTADYYCNADPTYHVVNGVAYWGQGTQVTVSS	low polyreactivity
QVQLVESGGGLVQEGGSLRLSCAASGRTFYQYAMGWYRQAPGKERELVAVINGGGSTNYADSVKGRFTISRDNAKNTVYLQMNSLIPEDTAVYYCNADDVFDFDYWGQGTQVTVSS	low polyreactivity
QVQLVESGGGLVQEGGSLRLSCAASGRTLHKNVMGWYRQAPGKERELVAAINTGGRTYYADSVKGRFTISRDNAKHTVYLQMNSLKPEDTAVYYCAKEGHVNPRPTVGGDYWGHGTQVTVSS	low polyreactivity
QVQLVESGGGLVQEGGSLRLSCAASGSIFIANAMGWYRQAPGKERELVARITRGGRTNYADSVKGRFTISRDNAKNTVYLQMNSLKPEDTAVYYCAAVYYVGFPHKYDYWGQGTQVTVSS	low polyreactivity
QVQLVESGGGLVQEGGSLRLSCAASGSIFLQYAMGWYRQAPGKERELVAGISLRGCSTYYADSVKGRFTISRDNAKNTVYVQLNSLKPEDTAVYYCAADVIVTVETHTSGPSFTEYDYWGQGTQVTVSS	low polyreactivity
QVQLVESGGGLVQEGGSLRLSCAASGSIFRYYAMGWYRQAPGKERELVAVITRGGSTYYADSVKGRFTISRDNAKNTVYLQMNSLKPEDTAVYYCAAEDYVIGDSGYDYWGQGTQVTVSS	low polyreactivity
QVQLVESGGGLVQEGGSLRLSCAASGSILGRYAMGWYRQAPGKERELVAAITSSGGRTYYADSVKGRFTISRDNAKNTVYLQMNSLKREDTAVYYCNAVSWWYGYDYWGQGTQVSVSS	high polyreactivity
QVQLVESGGGLVQEGGSLRLSCAASGSILIVYAMGWYRQATGKERELVAAITRGGRTNYADSVKGRFTISRDNAKNTVYLQMNSLKPEDTAVYYCAARVLPANVKPYNYWGQGTQVTVSS	high polyreactivity
QVQLVESGGGLVQEGGSLRLSCAASGSNFKRNTMGWYRQAPGKERELVAAISASGGRTYYADSVKGRFTISRDNAKNTVYLPMNSLKPEDTAVYYCNARFRIGRSELDYWGQGTQVTVSS	low polyreactivity
QVQLVESGGGLVQEGGSLRLSCAASGSTFGGYAMGWYRQAPGKERELVAAISGSGVRTYYADSVKGRFTISRDNAKYSVYLQMNSLKPEDTAVYYCAKRVRYPGDRYYYWGQGSQVTVSS	high polyreactivity
QVQLVESGGGLVQEGGSLRLSCAASGSTFIDYAMGWYRQAPGKERELVAAITNGGNTKYADSVKGRFTISRDNAKNTVYLQMHSLKPEETAVYYGAREPSIFTPSYDYWGQGTQVTVSS	low polyreactivity
QVQLVESGGGLVQEGGSLRLSCAASGSTFSYNAMGWYRQAPGKERELVAAITSGSSTNYADSVKGRFTISRDNAKNTVYLQMNSLKPEDTAVYYCAADGYQDKYYWLETWVGYWGQGTQVTVSS	low polyreactivity
QVQLVESGGGLVQEGGSLRLSCAASGSTFVINAMGWYRQAPGKERELVADIDYRGGSTNYSDSVKGRFTISRDNAKNTVYLQMNSLKPEVTAVYYCNKRYVIRRRGYDYWGQGTQVTVSS	low polyreactivity
QVQLVESGGGLVQEGGSLRLSCAAYGSTSYRYAMGWYRQAPGKERELVAASSSSGGSTYYADSVKGRFTISRDNEKNTVYLQMNSLKPEDSAVYYCAARFYSGPGGYTMYYWGQGTQVSVSS	high polyreactivity
QVQLVESGGGLVQEGGSLRLSCASSGSTFPRYVMGWYRKQTGTESELVAAISSSSGRTFYADSVKGRFTISRDNAKNTVYLQMNSLKPEDTAVYYCAARTSFNVHYWGQGTQVTVSS	high polyreactivity

Sequence	polyreactivity (PSR sort gate)
QVQLVESGGGLVQEGGSLRLSCDASGLILLPYARGWYRQAPGKERELVAAISCSGGSTYYADSVKGRFTISRDNAKNTVYLQMNSLKPEVTAVYYCPARPNRQGFYYWGQGTQVTVSS	high polyreactivity
QVQLVESGGGLVQEGGSLRLTCAASGRTFTVNAMGWYRQAPGKERELVARISYGGARTYYADSVKGRFTISRDNAKNTVYLQMNSLKPEDTAVYYCAAPGPRKYEYDYWGQGTQVTVSS	high polyreactivity
QVQLVESGGGLVQEGGSLRVSCAASGRTFRWYTMGWYRQAPGKEREFVAAITWSGSSTNYADSVKGRFTISRDNAKNTVYLQMNSLKPEDTAVYYCAGEKRRRRDDYWGQGTHVTVSS	high polyreactivity
QVQLVESGGGLVQERGSLRLSCAASGRIFGKYAMAWYRLAPGKERELVATISYGGGNTYYADSVKGRFTISRDNAKNTVYLQMNSMKPEDTAVYYCARVPYAYLRYKPFQQYSYDYWGQGTKVTVSS	high polyreactivity
QVQLVESGGGLVQEVGSLRLSCAASGSTIYWYAMGWSRQAPGKEMEIVAAISLGSGSTYYADSVKGRFTISRDNAKNTVYLQMNSLKPEDTAVYYCATRGSAWGRSYYYWGQGTQVTVSS	high polyreactivity
QVQLVESGGGLVQGGGSLRLRCAASGSILLYYTMGWYRPAPGKERELVAAISWSGVSTYYADSVKGRFTISRDNPMNTVYLQMISLKPVDNEVYYCGTRSVQGSYFAGYCYWGQGPQVTVSS	low polyreactivity
QVQLVESGGGLVQGGGSLRLSCAASGRIFGHYVMGSYRQAPGKERELVAAISYSGGSTYYADSVKGRFTISRDNAKNTVYLQMNSLKPEDTAVFYCAARVTQDSPYGAYYYWGQGTQVTVSS	high polyreactivity
QVQLVESGGGLVQGGGSLRLSCAASGRIFGVNAMGWYRQAPGKERELVATITSGTSTYYADSVKGRFTIARDNATTTVYLQITSLKPEDTAVYYSATSRVIPWDYDSWGQGTQVTVSS	low polyreactivity
QVQLVESGGGLVQGGGSLRLSCAASGRIFTRYTMGWYRPAPGKERELVAASTKRADRTNYADSVKGRFTISRDNAKNTVYLQMNSLKPEDTAVYSCNDAAFSQLRVRYDYWGQGTQVTVSS	low polyreactivity
QVQLVESGGGLVQGGGSLRLSCAASGRTFYGYAMGWYRQAPGKERELVAAITRSGGSTYYADSVKGRFTISRDNAKKTVYLQMNILKPVDTAVYYCAAGGQARHDYWGQGTQVTVSS	low polyreactivity
QVQLVESGGGLVQGGGSLRLSCAASGSIFSDYAMGWYRQAPGKEREFVAPITWSGTSTYYADSVKGRFTISRYNAKNTVYLQMNSLKPEDTAGDYSAADLLFWLGLVPGTIYDEFDYWGQGTQVTVAS	low polyreactivity
QVQLVESGGGLVQGGGSLRLSCDASGCNFRKNAMGWYRQAPGKERDLVAAISWDGDNTYADSVKGRFTISRDNAMNNVYLQLYSLKPVYTAVSYCAAETFTYYDYWGQGTQVNVSS	high polyreactivity
QVQLVESGGGLVQGGGSLRLTCAASGSIFHYYAMGWYRQAPGKERELVAAINSSGGSRTYYADSVKGRFTISRDNAKNTVYLQMNSLKPEDTAVYYCAADYRVVWRAYDYWGQGTQVTVSS	low polyreactivity
QVQLVESGGGLVQGGGSLSLRCAASGSTFDYNAMGWYRQAPGKERDLVAVISGGSSTNYADSVKGRFTISRDNEKNTVYLQMNSLNPEDTAVYYCNARDYFVARAVSFVTYWLGVYWGQGTQVSVSS	low polyreactivity
QVQLVESGGGLVQPGGSLRLSCAASGGIFRSYAMGSYRQAPGKERELVAVITKSGGDTYYADSVKGRFTISRDNAKNTVYLQMNRVKPVDTAVYYCAAVYGYYTYWIPGFTWAVDYWGQGTQVTVSS	low polyreactivity
QVQLVESGGGLVQPGGSLRLSCAASGRIFKRNAMGCYRQAPGKERELVAAITWRGGSTYYADSVKGRFTISRDNAKNTVYLQMKSMKPEDTAVYYCNVGYGGSSDGGYDYWGHGTQVTVSS	high polyreactivity
QVQLVESGGGLVQPGGSLRLSCAASGRTFGSYVMGWYRQAPWKQRELVATISRRGGTTYYADSVKGRVTISRDNAKNSVYLELLSLKPVDTAVYYCADKYFGTRYDYWGQGTQVTVSS	high polyreactivity
QVQLVESGGGLVQPGGSLRLSCAASGRTSEIYTMGWYRPAPGKERELVASINTNSADSVKGRFTISRDNAKNTVYLQMNSLKPEDTAVYYCNADDTIEFNYWGQGTQVTVSS	low polyreactivity
QVQLVESGGGLVQPGGSLRLSCAASGSIASYAMGWYRQAPGKERELVAGISWSGGSTYYADSVKGRFTISRDNAKNTVYLQMNSLKPEDTAVYYCNAYSAFVPPTRGYYWGQGTQVTVSS	high polyreactivity
QVQLVESGGGLVQPGGSLRLSCAASGSIFIGYAMGWYRQAPGKERELVASIRNGGSTNYADSVKGRFTISRDNAKNTVYLQMNSLKPEDTAVYYCAGRYPVFLVSFGFDYWGQGTQVTVSS	low polyreactivity
QVQLVESGGGLVQPGGSLRLSCAASGSTLRRNAMGWYRQATRIERELVSAITGSRGSTYYADSVKGRFTISLDNAKNTVYLQMNCLKPEDTAVYYCAALYYYHLLPSRYYRFVYWGQGTQVTVSS	high polyreactivity
